Broadly, the Kd is the equilibrium constant for the complex coming apart.

The target in test [1] is human PDGFR β on HEK293-PDGFR β cells (human) (UniProt P09619). Kind of test: time course on HEK293-PDGFRβ cells, plate reader.
Test [2] shares this target. The experiment in a line: HEK293-PDGFRβ cells with 500 uM liposome, plate reader.
Test [3] shares this target. The experiment in a line: HEK293-PDGFRβ cells with 500 uM liposome on ice, plate reader.
Test [4] has the same target. Kind of test: HEK293-PDGFRβ cells with 500 uM liposome, plate reader (data not shown).
For test [5] the target is unchanged. The experiment in a line: time course on HEK293-PDGFRβ cells, plate reader; not statistically significant.
Test [6] shares this target. Kind of test: FACS, 1-10 nM VHH-HL488, 1 h. In general terms: A flow cytometer gives signals particle by particle.
For test [7] the target is unchanged. Kind of test: FACS dose response, 1 h at 37° C.
Test [8] shares this target. Kind of test: cell binding on ice for 1 h, fluorescence plate reader.
For test [9] the target is unchanged. Kind of test: FACS dose response, dialyzed VHH-HL488 batch (data not shown).
The target of test [10] is human PDGFR β ECD (U-protein Express, Utrecht) (human) (UniProt P09619). Kind of test: dose response ELISA, PDGFR β ECD coated at 2 µg/ml, rabbit anti-VHH detection. A general note: ELISA stands for enzyme-linked immunosorbent assay.
Test [11] addresses T1, human PDGFR β extra-cellular domain (ECD), Fc- and His-tagged (Sino Biological) (human, UniProt P09619 33-532).
T1 construct: extracellular domain; Bought; also called hECD; Fc/His-tagged PDGFR β ECD; not shown: Fc tag and His tag
The experiment in a line: SPR (Biacore 3000), Fc/His PDGFR β ECD captured on protein A; 1B5 construct not stated. The protocol: FIG. 11: VHH (flag-his-tagged, or conjugated with HL488, NOTA or 800 CW) binding to human extracellular domain (ECD) of PDGFR β assessed with surface plasmon resonance (SPR). Fc/His-tagged PDGFR β ECD was bound to protein A chemically conjugated to CM4 sensor chip. Binding of VHHs was tested at 0.39-50 nM. Shown are representative SPR Biacore traces of tagged or conjugated 1B5 VHH (panels A); tagged or conjugated 1D4 VHH (panels B); tagged or conjugated 1H4 VHH (panels C) or tagged VHH 1E12 (panel D).
SPR analysis was performed using the Biacore 3000 instrument (GE Healthcare). Protein A was chemically bound to a CM4 sensor chip (GE Healthcare) according to the primary amine procedure to approximately 2100 response units (RU). Fc/His-tagged PDGFR β ECD at 0.4-2.07 ng/ul was bound to protein A at flow rate of 35 ul/min. Run buffer HBS-EP (GE Healthcare; 0.01 M HEPES pH 7.4, 0.15 M NaCl, 3 mM EDTA, 0.005% v/v Surfactant P20) was used for VHHs 1D4, 1H4 and 1E12 conjugates at 50, 25, 12.5, 6.25, 3.13, 1.56, 0.78 and 0.39 nM. For 1B5 conjugates, HBS-EP+0.5 M NaSCN was as run buffer to reduce non-specific binding to a control path without PDGFR β ECD. A flow rate 70 ul/min was used for VHH injections in volumes of 150 ul. Regeneration of the sensor CM4 chip was performed by three successive injections of c. 30 s 10 mM glycine-HCl pH 2, 10 mM glycine-HCl pH 1.5, and 0.5 M NaSCN/10 mM NaOH.
Background: In SPR one partner is held on a chip, and binding of the other changes the refractive index at the surface.

Test [12] has as its target human PDGFR β on HEK293-PDGFR β cells (human) (UniProt P09619). Kind of test: FACS dose response, 1 h at 37° C. (MFI).
For test [13], the target named is T2, human EGFR/HER1/ErbB1 Protein (His Tag, Sino Biological; Cat. Number 10001-H08H) (human, UniProt P00533 25-645).
T2 construct: Bought; construct not described; not shown: His tag
The experiment in a line: direct ELISA, EGFR coated, streptavidin-HRP detection. The protocol:
(§1) 96-well maxisorp (Nunc) immunosorp plates were coated with 2 ug/ml of human PDGFRa (Sino Biological; Cat. Number; 10556-HCCH) or 2 ug/ml human EGFR/HER1/ErbB1 Protein (His Tag, Sino Biological; Cat. Number; 10001-H08H) in PBS, 100 ul per well, at 4C overnight. Wells were washed thrice in PBS. Unspecific binding sites were blocked in 4% BSA/PBS for 1 h at RT, followed by washing thrice in PBS. VHH-biotin conjugates, diluted at 0.01-100 nM in 1% BSA/PBS, were incubated for 1 h at RT, followed by washing thrice in PBS. Streptavidin-horseradish peroxidase (HRP; GeneTex) was diluted 1:40,000 in 1% BSA/PBS and was incubated for 1 h at RT. PDGFRa or EGFR was detected with positive control antibodies rabbit anti-human PDGFRa/CD140a Antibody, (Cat no: 10556-R065) or rabbit anti-human EGFR/HER1/ErbB1 (Catalog no: 10001-R021, both from Sino Biological) diluted in 1% BSA/PBS at 1:5000 and were incubated for 1 h at RT, shaking. Secondary HRP-conjugated anti-rabbit-antibody was diluted at 1:5000 in 1% BSA/PBS and was incubated for 1 h at RT, shaking. Wells were washed 6 times in PBS. o-Phenylenediamine dihydrochloride (OPD; Sigma-Aldrich) was used as HRP substrate at 0.4 mg/ml in 0.05 M phosphate-citrate buffer pH 5.0 with 0.03% sodium perborate (Sigma-Aldrich), prepared according to the manufacturer's recommendations, and was used in volume of 100 ul per well. Reaction was allowed to proceed for 30 min at RT in dark, and was stopped by adding 50 ul of 1.5 M HCl. Optical density was measured at 492 nm on a Synergy H1 microplate reader (BioTek).

Test [14] has as its target T3, human PDGFRa (Sino Biological; Cat. Number 10556-HCCH) (human, UniProt P16234 24-524, limits assumed).
T3 construct: Bought; construct not described; also called PDGFRα
The experiment in a line: direct ELISA, PDGFRa coated, streptavidin-HRP detection. Here is the method:
as §1
VHH-biotin binding to human PDGFRa was assessed using an ELISA, where wells were coated with PDGFRa, and VHH-biotin binding was detected using streptavidin-HRP with OPD as a substrate.

B1: 1B5-liposome-100 (protein)
VHH: EVQLVESGGGLVQPGGSLRLSCVASGFSFSESAMSWVRQAPGKGLEWLSGISSGGGRSTTYAESVEGRFTISRDDAKNTLMLQMNSLKSEDTAVYYCAKTGYCSGYNCNFAPRGQGTQVTVSS
modifications: coupled to maleimide-PEG-DSPE and post-inserted into calcein/rhodamine PE liposomes; 100 nanobodies per liposome
Consider B1, for which, in test [1], the fold calcein fluorescence over liposome-0, 3 h (uptake) is 4.7 fold and the fold calcein fluorescence over liposome-0, 6 h (uptake) was 5.1 fold. In addition, the fold calcein fluorescence over non-targeted liposome-0, 37° C. (binding and uptake) in test [2] is 3.4 fold. Also, the fold calcein fluorescence over non-targeted control, on ice (binding) in test [3] is 1.8 fold. Besides, in [4], the fold rhodamine PE signal, 37° C. came to 2.4 fold. For the same molecule, in test [5], the fold calcein fluorescence over liposome-0, 0 h (binding and/or uptake) was 2.2 fold and the fold calcein fluorescence over liposome-0, 1 h (binding and/or uptake) was 2.8 fold.

B2: 1B5-HL488 (VHH, not shown: small tags and cut ends)
VHH: B1 VHH
modifications: HiLyte Fluor 488-maleimide on the C-terminal cysteine of the C-Direct tag
For the molecule B2, the MFI at 4° C. (binding) as percent of MFI at 37° C. (binding and uptake) in test [6] was 52 to 58%. The results for the detection limit in [7] and in test [8] were 0.1 nM and 1 nM, respectively. This molecule gave a concentration at which detectable by FACS in test [9] of 1 nM.

B3: QPD-1B5 (VHH)
VHH: B1 VHH
notes: Purified, unconjugated VHH; also called VHH 1B5
With B3, the apparent affinity in test [10] was found to be 1 nM. In test [11], this molecule returned a Kd of 4 to 5 pM.

B4: QPD-1E12 (VHH)
VHH: EVQLVESGGGLVQAGGSLRLSCAPSERSFSAYLMGWFRQAQGKEREFVAAWRWPTSTTYYSDSGKGRFTITGDNAKNTVELEMNSLKPEDTAVYYCAARRGILYGPATSPTAYDFWGQGTQVTVSS
Regarding B4, the apparent affinity in test [10] came to 10 nM.

B5: 1E12-HL488 (VHH, not shown: small tags and cut ends)
VHH: B4 VHH
modifications: HiLyte Fluor 488-maleimide on the C-terminal cysteine of the C-Direct tag
B5 registered a lowest concentration detectably bound or taken up (percentage of HL488-positive population) in test [7] of 10 nM. Moreover, in test [12], the detection limit worked out at 100 nM.

B6: 1D4-HL488 (VHH, not shown: small tags and cut ends)
VHH: EVQLVESGGGLVQAGDSLRLSCAVSGRAQSRDVVGWFRQAPGKEREFLALVTRSYSTYYGASVKGRFTISRDNAKNTVHLEMNSLKPEDTGVYYCAADQGFCSGSGCYDWRTFHVWGQGTQVTVSS
modifications: HiLyte Fluor 488-maleimide on the C-terminal cysteine of the C-Direct tag
Consider B6, for which the MFI at 4° C. (binding) as percent of MFI at 37° C. (binding and uptake) in [6] fell in the range of 53 to 61%. The detection limit in test [7] worked out at 0.1 nM. For the same molecule, the concentration at which detectable by FACS in [9] was 1 nM.

B7: 1D4-biotin (VHH)
VHH: B6 VHH
modifications: Biotin-maleimide on the C-terminal cysteine of the C-Direct tag
notes: ID NO: 27 or 28; also called biotin-conjugated 1D4; VHH-biotin; not shown: C-terminal C-Direct tag with a free cysteine and an EPEA purification tag (vector pYQVQ11)
Regarding B7, the binding result in [13] and in test [14] was “no binding (tested: 0.01-100 nM)” in each case.

B8: QPD-1H4 (VHH)
VHH: EVQLVESGGGLVQPGGSLRVSCSASWRTGNPFAMAWFRQAPGKERELIARISWTAGRTEYAESAKGRFTISRDVAKKTMYLQMNSLTPEDTGVYFCAARFVPSSGPTVFDTWGQGTQVTVSS
Consider B8, for which the apparent affinity in test [10] is less than 1 nM.

B9: 1H4-biotin (VHH)
VHH: B8 VHH
modifications: Biotin-maleimide on the C-terminal cysteine of the C-Direct tag
notes: ID NO: 29 or 30; also called biotin-conjugated 1H4; VHH-biotin; not shown: C-terminal C-Direct tag with a free cysteine and an EPEA purification tag (vector pYQVQ11)
Consider B9, for which the binding result in test [13] and in [14] was “no binding (tested: 0.01-100 nM)” throughout.

B10: 1H4-HL488 (VHH, not shown: small tags and cut ends)
VHH: B8 VHH
modifications: HiLyte Fluor 488-maleimide on the C-terminal cysteine of the C-Direct tag
With B10, the MFI at 4° C. (binding) as percent of MFI at 37° C. (binding and uptake) in [6] was 65 to 66%. Moreover, the detection limit in [7] came to 0.1 nM. In test [9], the concentration at which detectable by FACS stood at 10 nM.

Source of the values: patent publication US20240174755A1 (published 2024).
